The results in this text go back to patent US20030021774.

In data set [1] the target is T1, Soybean Kunitz Trypsin Inhibitor, P01070.
T1 chain: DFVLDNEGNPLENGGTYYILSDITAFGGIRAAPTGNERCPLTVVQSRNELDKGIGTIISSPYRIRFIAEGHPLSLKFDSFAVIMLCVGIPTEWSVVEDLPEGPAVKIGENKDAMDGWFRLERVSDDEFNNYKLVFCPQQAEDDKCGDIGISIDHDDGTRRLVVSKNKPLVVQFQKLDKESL

In data set [2] the target is T2, soybean Bowman-Birk Inhibitor, P01055.
T2 chain: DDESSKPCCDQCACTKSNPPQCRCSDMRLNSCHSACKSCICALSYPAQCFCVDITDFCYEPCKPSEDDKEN

For data set [3], the target named is soybean agglutinin (SBA), P05046.
soybean agglutinin (SBA), P05046, sequence (P05046 33-285): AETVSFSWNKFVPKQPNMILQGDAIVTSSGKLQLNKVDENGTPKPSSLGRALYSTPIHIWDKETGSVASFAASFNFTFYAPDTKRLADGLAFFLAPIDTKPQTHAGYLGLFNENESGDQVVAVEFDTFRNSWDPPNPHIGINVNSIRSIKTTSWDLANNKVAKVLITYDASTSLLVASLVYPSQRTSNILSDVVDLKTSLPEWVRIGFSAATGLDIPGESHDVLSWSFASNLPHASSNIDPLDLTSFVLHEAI

B1: protease derived from Bacillus sp. NCIMB 40484 (protein)
chain: MKFKKIAALSLATSLALFPAFGGSSLAKEAPKPFQPINKTLDKGAFESGEVIVKFKDGVSKKAQGSALNKAEANEQKASAKDPFQVLEVADVDQAVKALENNPNVEYAEPNYTFQATWSPNDPYYSAYQYGPQNTSTPAAWDVTRGSSTQTVAVLDSGVDYNHPDLARKVIKGYDFIDRDNNPMDLNGHGTHVAGTVAADTNNGIGVAGMAPDTKILAVRVLDANGSGSLDSIASGIRYAADQGAKVLNLSLGCECNSTTLKSAVDYAWNKGAVVVAAAGNDNVSRTFQPASYPNAIAVGAIDSNDRKASFSNYGTWVDVTAPGVNIASTVPNNGYSYMSGTSMASPHVAGLAALLASQGKNNVQIRQAIEQTADKISGTGTNFKYGKINSNKAVRY
Turning to B1, the % of anti-nutritional factor degraded (SDS-PAGE band scanning) in data set [1] came out at 100%; in data set [2] it was 41%; in data set [3], 21%.
